The numbers were not newly measured in article PMC4451881, which cites them from elsewhere.

This data set has as its target CK2beta (Homo sapiens) (UniProt P67870).

pKd: −log10 of the molar value.

Sequence of CK2beta (Homo sapiens) (P67870 2-215): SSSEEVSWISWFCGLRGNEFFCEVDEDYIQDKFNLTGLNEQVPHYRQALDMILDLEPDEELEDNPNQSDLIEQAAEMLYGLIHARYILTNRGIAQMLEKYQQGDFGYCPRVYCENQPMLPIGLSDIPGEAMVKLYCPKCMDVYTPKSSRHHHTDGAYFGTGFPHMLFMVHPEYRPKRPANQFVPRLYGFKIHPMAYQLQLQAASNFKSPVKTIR
Sequence of CK2alpha (P68400 whole entry): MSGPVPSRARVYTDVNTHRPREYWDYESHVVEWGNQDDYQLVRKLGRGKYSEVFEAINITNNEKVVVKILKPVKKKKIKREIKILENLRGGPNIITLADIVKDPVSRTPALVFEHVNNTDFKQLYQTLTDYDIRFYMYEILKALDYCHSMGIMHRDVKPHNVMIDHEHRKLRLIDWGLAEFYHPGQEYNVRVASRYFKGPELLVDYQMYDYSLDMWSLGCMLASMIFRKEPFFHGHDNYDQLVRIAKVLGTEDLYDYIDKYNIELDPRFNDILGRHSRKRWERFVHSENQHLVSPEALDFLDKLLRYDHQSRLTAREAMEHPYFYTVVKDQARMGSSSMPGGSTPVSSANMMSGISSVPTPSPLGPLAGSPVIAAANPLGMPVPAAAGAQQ

In the case of CK2alpha (from UniProt P68400), the pKd was 8.40.
